From patent publication US20150274799A1, “GLP-1 ANALOGUE, ITS PREPARATION METHODS AND USE THEREOF” (TIANJIN INSTITUTE OF PHARMACEUTICAL RESEARCH, priority 2011, published 2015)
Ends that are not written are not given here.

Columns and labels:
[1] = in vivo; cited from earlier work
[2] = cited from earlier work

Substance	half-life of GLP-1 administered alone [1] [min]	serum half-life [2] [min]	half-life in human serum [h]
HAEGTFTSDVSSYLEGQAAKEFIAWLVKGRG [GLP-1]	3 to 5	3 to 5	
^7HAEGT FTSDVSSYLEGQAAKEFICWLCKGRG^37GG C GGGGG GGGGG (HAEGTFTSDVSSYLEGQAAKEFICWLCKGRGGGCGGGGGGGGGG; disulfide (positions not given here); also: contains disulfide bonds, places not given here (three Cys)) [SEQ ID NO 58]			> 24
^7HAEGT FTSDVSSYLEGQAAKEFICWLCKGRG^37GG C GGGGG GGGGGGGGGG (HAEGTFTSDVSSYLEGQAAKEFICWLCKGRGGGCGGGGGGGGGGGGGGG; disulfide (positions not given here); also: contains disulfide bonds, places not given here (three Cys)) [SEQ ID NO 59]			> 24
